Assay results: paper PMC7850899, “Nutrient transceptors physically interact with the yeast S6/protein kinase B homolog, Sch9, a TOR kinase target” (Biochemical Journal, 2021)

B1: GST-tagged Sch9 (GST-Sch9) [S. cerevisiae] / HA-tagged wild type Gap1 (HA-Gap1) [S. cerevisiae] (parent complex)
chain 1: MMNFFTSKSSNQDTGFSSQHQHPNGQNNGNNNSSTAGNDNGYPCKLVSSGPCASSNNGALFTNFTLQTATPTTAISQDLYAMGTTGITSENALFQMKSMNNGISSVNNNNSNTPTIITTSQEETNAGNVHGDTGGNSLQNSEDDNFSSSSTTKCLLSSTSSLSINQREAAAAAYGPDTDIPRGKLEVTIIEARDLVTRSKDSQPYVVCTFESSEFISNGPESLGAINNNNNNNNNNQHNQNQHINNNNENTNPDAASQHHNNNSGWNGSQLPSIKEHLKKKPLYTHRSSSQLDQLNSCSSVTDPSKRSSNSSSGSSNGPKNDSSHPIWHHKTTFDVLGSHSELDISVYDAAHDHMFLGQVRLYPMIHNLAHASQHQWHSLKPRVIDEVVSGDILIKWTYKQTKKRHYGPQDFEVLRLLGKGTFGQVYQVKKKDTQRIYAMKVLSKKVIVKKNEIAHTIGERNILVTTASKSSPFIVGLKFSFQTPTDLYLVTDYMSGGELFWHLQKEGRFSEDRAKFYIAELVLALEHLHDNDIVYRDLKPENILLDANGNIALCDFGLSKADLKDRTNTFCGTTEYLAPELLLDETGYTKMVDFWSLGVLIFEMCCGWSPFFAENNQKMYQKIAFGKVKFPRDVLSQEGRSFVKGLLNRNPKHRLGAIDDGRELRAHPFFADIDWEALKQKKIPPPFKPHLVSETDTSNFDPEFTTASTSYMNKHQPMMTATPLSPAMQAKFAGFTFVDESAIDEHVNNNRKFLQNSYFMEPGSFIPGNPNLPPDEDVIDDDGDEDINDGFNQEKNMNNSHSQMDFDGDQHMDDEFVSGRFEI
chain 2: MSNTSSYEKNNPDNLKHNGITIDSEFLTQEPITIPSNGSAVSIDETGSGSKWQDFKDSFKRVKPIEVDPNLSEAEKVAIITAQTPLKHHLKNRHLQMIAIGGAIGTGLLVGSGTALRTGGPASLLIGWGSTGTMIYAMVMALGELAVIFPISGGFTTYATRFIDESFGYANNFNYMLQWLVVLPLEIVSASITVNFWGTDPKYRDGFVALFWLAIVIINMFGVKGYGEAEFVFSFIKVITVVGFIILGIILNCGGGPTGGYIGGKYWHDPGAFAGDTPGAKFKGVCSVFVTAAFSFAGSELVGLAASESVEPRKSVPKAAKQVFWRITLFYILSLLMIGLLVPYNDKSLIGASSVDAAASPFVIAIKTHGIKGLPSVVNVVILIAVLSVGNSAIYACSRTMVALAEQRFLPEIFSYVDRKGRPLVGIAVTSAFGLIAFVAASKKEGEVFNWLLALSGLSSLFTWGGICICHIRFRKALAAQGRGLDELSFKSPTGVWGSYWGLFMVIIMFIAQFYVAVFPVGDSPSAEGFFEAYLSFPLVMVMYIGHKIYKRNWKLFIPAEKMDIDTGRREVDLDLLKQEIAEEKAIMATKPRWYRIWNFWC
B2: GST-tagged Sch9 (GST-Sch9) [S. cerevisiae] / Gap1 peptide 222-GVKGYGEAEFVFSFI-236 [S. cerevisiae] (parent complex)
chain 1: B1 chain 1
chain 2: GVKGYGEAEFVFSFI

Variants of: B1
Test: GST pull-down assay; parent: 100

In order of rising percent of parent:
1. chain 2 V232K  86.9 % of Gap1WT
2. chain 2 F231D  98.9 % of Gap1WT
3. chain 2 F231D, chain 2 V232K, chain 2 F233D  102 % of Gap1WT
4. chain 2 F233D  138 % of Gap1WT

Variants of: B2
Test: substitution peptide microarray; 100 or 500 µg/ml GST-Sch9; parent: 100; read off a plot

In order of falling percent of parent:
1. chain 2 G6F  ~330 % of wild type peptide
2. chain 2 S13C  ~240 % of wild type peptide
3. chain 2 I15E  ~150 % of wild type peptide
4. chain 2 G1F  ~140 % of wild type peptide
